Assay results: PMC4851429 (Structure (London, England : 1993), 2015)

B1: biotinylated human LPHN3 olfactomedin domain (residues V132-G392) (domain or fragment, UniProt Q9HAR2 132-392, looked up)
chain: VFLCPGLLKGVYQSEHLFESDHQSGAWCKDPLQASDKIYYMPWTPYRTDTLTEYSSKDDFIAGRPTTTYKLPHRVDGTGFVVYDGALFFNKERTRNIVKFDLRTRIKSGEAIIANANYHDTSPYRWGGKSDIDLAVDENGLWVIYATEQNNGKIVISQLNPYTLRIEGTWDTAYDKRSASNAFMICGILYVVKSVYEDDDNEATGNKIDYIYNTDQSKDSLVDVPFPNSYQYIAAVDYNPRDNLLYVWNNYHVVKYSLDFG
modifications: biotin (biotinylated; residue not stated)
B2: human LPHN3 olfactomedin domain (residues V132-G392) (domain or fragment, UniProt Q9HAR2 132-392, looked up)
chain: B1 chain
B3: human FLRT3 LRR domain (residues K29-D357) (domain or fragment, UniProt Q9NZU0 29-357, looked up)
chain: KSCPSVCRCDAGFIYCNDRFLTSIPTGIPEDATTLYLQNNQINNAGIPSDLKNLLKVERIYLYHNSLDEFPTNLPKYVKELHLQENNIRTITYDSLSKIPYLEELHLDDNSVSAVSIEEGAFRDSNYLRLLFLSRNHLSTIPWGLPRTIEELRLDDNRISTISSPSLQGLTSLKRLVLDGNLLNNHGLGDKVFFNLVNLTELSLVRNSLTAAPVNLPGTNLRKLYLQDNHINRVPPNAFSYLRQLYRLDMSNNNLSNLPQGIFDDLDNITQLILRNNPWYCGCKMKWVRDWLQSLPVKVNVRGLMCQAPEKVRGMAIKDLNAELFDCKD
modifications: N-linked glycosylation observed at N226

How the values were obtained:
[1] = target: B3; test: flow cytometry on cells
[2] = target: B3; test: BLI
SEC = target: the molecule itself; test: SEC

## B1
[1]
  binding result: binds

## B2
[2]
  Kd: 220 to 260 nM

## B3
SEC
  stoichiometry N: 2
